Source: patent US20090155271A1 (ZymoGenetics, published 2009)
Values joined by “and” are separate entries in the source; they are usually repeats but may differ in a detail not shown here. Equal entries are not always repeated.

T1: human IL-17RC, x1 splice variant, on transfected cells (human, UniProt Q8NAC3 21-791)
T1 sequence: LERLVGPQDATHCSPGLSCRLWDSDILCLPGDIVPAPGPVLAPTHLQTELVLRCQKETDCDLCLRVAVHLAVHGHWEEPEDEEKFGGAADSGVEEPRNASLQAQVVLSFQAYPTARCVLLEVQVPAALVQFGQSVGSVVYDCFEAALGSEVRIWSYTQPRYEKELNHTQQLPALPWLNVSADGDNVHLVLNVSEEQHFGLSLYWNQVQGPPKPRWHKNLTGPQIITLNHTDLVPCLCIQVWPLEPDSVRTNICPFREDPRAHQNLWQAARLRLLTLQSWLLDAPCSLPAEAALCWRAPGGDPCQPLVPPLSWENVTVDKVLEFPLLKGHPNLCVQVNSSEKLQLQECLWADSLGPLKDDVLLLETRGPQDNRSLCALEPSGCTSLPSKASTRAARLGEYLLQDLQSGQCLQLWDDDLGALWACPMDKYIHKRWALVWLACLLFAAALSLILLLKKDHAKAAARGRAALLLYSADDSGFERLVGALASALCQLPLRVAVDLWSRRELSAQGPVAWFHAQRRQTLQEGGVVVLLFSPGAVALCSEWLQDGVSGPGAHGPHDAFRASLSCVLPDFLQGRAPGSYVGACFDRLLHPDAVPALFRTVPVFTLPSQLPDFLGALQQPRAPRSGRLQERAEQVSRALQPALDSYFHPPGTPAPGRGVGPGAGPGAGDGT

T2: human IL-17RA on transfected cells (human, UniProt Q96F46 33-320)
T2 sequence: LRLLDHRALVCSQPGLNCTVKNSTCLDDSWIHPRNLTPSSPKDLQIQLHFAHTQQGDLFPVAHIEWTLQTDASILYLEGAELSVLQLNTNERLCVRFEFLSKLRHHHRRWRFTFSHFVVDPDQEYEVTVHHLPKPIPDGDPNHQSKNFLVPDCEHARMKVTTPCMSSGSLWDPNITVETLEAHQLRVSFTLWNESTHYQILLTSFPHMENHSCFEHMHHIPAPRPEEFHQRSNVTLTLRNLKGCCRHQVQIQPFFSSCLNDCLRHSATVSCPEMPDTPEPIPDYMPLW

T3: human IL-17A (human, UniProt Q16552 24-155)
T3 sequence: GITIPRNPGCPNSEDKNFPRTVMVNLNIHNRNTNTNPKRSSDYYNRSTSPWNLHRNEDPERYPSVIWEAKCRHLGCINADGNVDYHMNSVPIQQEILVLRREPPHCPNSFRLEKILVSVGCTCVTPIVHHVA

B1: mouse IL-17A (ligand)
chain: AAIIPQSSACPNTEAKDFLQNVKVNLKVFNSLGAKVSSRRPSDYLNRSTSPWTLHRNEDPDRYPSVIWEAQCRHQRCVNAEGKLDHHMNSVLIQQEILVLKREPESCPFTFRVEKMLVGVGCTCVASIVRQAA
B2: human IL-17F (ligand)
chain: RKIPKVGHTFFQKPESCPPVPGGSMKLDIGIINENQRVSMSRNIESRSTSPWNYTVTWDPNRYPSEVVQAQCRNLGCINAQGKEDISMNSVPIQQETLVVRRKHQGCSVSFQLEKVLVTVGCTCVTPVIHHVQ
notes: also called hIL-17F; huIL-17F
B3: Variant 1454 (exons 1-6 of human IL-17RA and 8-16 of human IL-17RCx1, fused to Fc5) (Fc fusion)
chain: SLRLLDHRALVCSQPGLNCTVKNSTCLDDSWIHPRNLTPSSPKDLQIQLHFAHTQQGDLFPVAHIEWTLQTDASILYLEGAELSVLQLNTNERLCVRFEFLSKLRHHHRRWRFTFSHFVVDPDQEYEVTVHHLPKPIPDGDPNHQSKNFLVPDCEHARMKVTTPCMSSALPWLNVSADGDNVHLVLNVSEEQHFGLSLYWNQVQGPPKPRWHKNLTGPQIITLNHTDLVPCLCIQVWPLEPDSVRTNICPFREDPRAHQNLWQAARLRLLTLQSWLLDAPCSLPAEAALCWRAPGGDPCQPLVPPLSWENVTVDKVLEFPLLKGHPNLCVQVNSSEKLQLQECLWADSLGPLKDDVLLLETRGPQDNRSLCALEPSGCTSLPSKASTRAARLGEYLLQDLQSGQCLQLWDDDLGALWACPMDKYIHKEPKSSDKTHTCPPCPAPEAEGAPSVFLFPPKPKDTLMISRTPEVTCVVVDVSHEDPEVKFNWYVDGVEVHNAKTKPREEQYNSTYRVVSVLTVLHQDWLNGKEYKCKVSNKALPSSIEKTISKAKGQPREPQVYTLPPSRDELTKNQVSLTCLVKGFYPSDIAVEWESNGQPENNYKTTPPVLDSDGSFFLYSKLTVDKSRWQQGNVFSCSVMHEALHNHYTQKSLSLSPGK
notes: also called IL17RA/RC 1454; soluble IL-17RC/IL-17RA polypeptide

Tests used:
[1] = biological target: T1, human IL-17RC, x1 splice variant, on …; test: cell-based or functional assay
[2] = biological target: T2, human IL-17RA on transfected cells; test: cell-based or functional assay
[3] = biological target: T1, human IL-17RC, x1 splice variant, on …; test: 100x molar cold competitor, 125I IL-17A on BHK hIL-17RC cells
Method: (§1) Cold competitors were added in 100 fold molar excess. […] Wells were incubated on ice for 1-hour followed by two washes with PBS (Invitrogen 20012-027) and one wash with a high salt solution (1.5M NaCL, 50 mM HEPES pH 7.4). Wells were extracted with 500 ul of 0.8M NaOH for 30 min. at room temperature and counts per minute were measured in a gamma counter (Packard Cobra II A5005).

[4] = biological target: T1, human IL-17RC, x1 splice variant, on …; test: 100x molar cold competitor, 125I IL-17F on BHK hIL-17RC cells
Method: as §1

[5] = biological target: T3, human IL-17A; test: cell-based or functional assay
[6] = biological target: B2; test: cell-based or functional assay
[7] = biological target: T3, human IL-17A; test: cell-based or functional assay; remark: listed apart in the source
[8] = biological target: B2; test: cell-based or functional assay; remark: listed apart in the source
[9] = biological target: T3, human IL-17A; test: Biacore, rounded summary of Table 10
Source text: (§2) The protocol was optimized to capture receptor at a theoretical binding max. before injecting a concentration series of each ligand to observe association and dissociation. […] The surface was regenerated with 2×30 sec. injections of pH 1.75 glycine between cycles.

[10] = biological target: B2; test: Biacore, rounded summary of Table 10
Source text: as §2

[11] = biological target: T3, human IL-17A; test: Biacore, receptor captured by anti-human IgG-Fc on CM5, ligand series
Source text: as §2

[12] = biological target: B2; test: as above
Source text: as §2

B1
EC50, ap1/nfkb luciferase in nih3t3/kz142.8/hcytor14x1 cells [1]: ~0.004 µg/mL

B2
EC50, ap1/nfkb luciferase in nih3t3/kz142.8/hcytor14X1 cells [1]: 0.00061 µg/mL
EC50, ap1/nfkb luciferase in nih3t3/kz142.8/IL-17R cells [2]: 0.0124 µg/mL
fold reduction of 125I IL-17A binding [3]: ~7 fold
fold reduction of 125I IL-17F binding [4]: ~5 fold

B3
IC50, luciferase activation of hIL-17RA/NIH3T3/KZ142.8 cells by 0.5 ng/ml IL-17A [5]: 0.007 µg/mL
IC50, luciferase activation of hIL-17RA/NIH3T3/KZ142.8 cells by 20 ng/ml IL-17F [6]: 0.48 µg/mL
IC50, luciferase activation of hIL-17RCX4/NIH3T3/KZ142.8 cells by 1 ng/ml IL-17F [6]: 0.8 µg/mL
IC50, huIL-17A(10 ng/ml) induction of G-CSF in SAEC [7]: 0.14 µg/mL
IC50, huIL-17A(10 ng/ml) induction of IL-8 in SAEC [7]: 0.03 µg/mL
IC50, huIL-17F(50 ng/ml) induction of G-CSF in SAEC [8]: 1.2 µg/mL
IC50, huIL-17F(50 ng/ml) induction of IL-8 in SAEC [8]: 0.57 µg/mL
Kd [9]: ~0.04 nM
Kd [10]: ~0.14 nM
Kd [11]: 0.0439 nM and 0.0382 nM
koff [11]: 6.22e-05 s⁻¹ and 9.95e-05 s⁻¹
kon [11]: 1.42e+06 M⁻¹ s⁻¹ and 2.61e+06 M⁻¹ s⁻¹
Kd [12]: 0.143 nM and 0.126 nM
koff [12]: 0.000261 s⁻¹ and 0.000315 s⁻¹
kon [12]: 1.82e+06 M⁻¹ s⁻¹ and 2.49e+06 M⁻¹ s⁻¹
